The results in this text go back to paper doi:10.1101/2023.01.09.523197.

The data set has as its target GlnR;RNAP holoenzyme (Mycobacterium …, UniProt O53830;P9WGZ1;P9WGY9;P9WGY7;P9WGY5;P9WGI1 1-255;1-347;1-1178;1-1316;1-110;1-528, |). Put plainly: cryo-EM.

B1: amtB scaffold (dsDNA)
DNA 1: CTTCGTCACGGCGGCGAAACAACGAGGGGCTTCCACCGAAACCGCGCTGCGTTATAATGGGAGCTGTCACGGATGCA
DNA 2: TGCATCCGTGAGTCGAGGGTAATAAACGCAGCGCGGTTTCGGTGGAAGCCCCTCGTTGTTTCGCCGCCGTGACGAAG
For B1, the binding result is recorded as “binds”.
